Substitutions are numbered along the chain they refer to.

Kd data for four molecules are collected here from article PMC8809517, “Cofactor-independent RNA editing by a synthetic S-type PPR protein”.

What all share (test): high-throughput RNA pulldown from lysate on Ni-NTA beads; HRP: 50 mM Tris pH 8, 150 mM NaCl, 1 mM beta-mercaptoethanol, 50 ug/ml BSA, 3 ug/ml yeast RNA, 0.5% heparin; ITC and FP: Tris pH 8, 200 mM KCl, 5% glycerol; MST: 50 mM Tris pH 8, 200 mM NaCl, 1 mM DTT, BSA, heparin, 0.05% Tween 20
Conditions in all cases: tags: N-terminal His-eGFP

Data set [1] deals with T1, GFP-9S library array, motif 4 ND N98C (synthetic construct, N98C).
T1 chain: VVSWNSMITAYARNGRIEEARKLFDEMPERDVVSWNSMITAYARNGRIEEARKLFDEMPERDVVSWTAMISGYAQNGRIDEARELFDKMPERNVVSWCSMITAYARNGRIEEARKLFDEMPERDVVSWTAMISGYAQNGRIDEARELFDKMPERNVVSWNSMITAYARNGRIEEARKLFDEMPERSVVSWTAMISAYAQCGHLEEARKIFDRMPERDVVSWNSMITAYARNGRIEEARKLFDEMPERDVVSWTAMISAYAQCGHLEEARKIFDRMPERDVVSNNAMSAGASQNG

Data set [2] concerns the target T2, GFP-9S library array, motif 4 ND N98Y;D124S (synthetic construct, N98Y;D124S).
T2 chain: T1 chain with C98Y, D124S

The target of data set [3] is T3, GFP-9S library array, motif 4 ND N98D;D124E (synthetic construct, N98D;D124E).
T3 chain: T1 chain with C98D, D124E

Data set [4] addresses T4, GFP-9S library array, motif 4 ND N98Q;D124P (synthetic construct, N98Q;D124P).
T4 chain: T1 chain with C98Q, D124P

The target in data set [5] is T5, GFP-9S library array, motif 4 ND N98F;D124K (synthetic construct, N98F;D124K).
T5 chain: T1 chain with C98F, D124K

B1: Cy5-rpoA-G (ssRNA)
RNA: AUUAGACGUGA
On to B1, for which the Kd (usually the constant that tells how readily two partners part at equilibrium) in data set [1] (label: 5' Cy5) was found to be 0.62 µM; in data set [2] (label: 5' Cy5), 0.224 µM; in data set [3] (label: 5' Cy5) it was 0.0952 µM; in data set [4] (label: 5' Cy5), 0.138 µM; in data set [5] (label: 5' Cy5), 0.0636 µM.

B2: IR-rpoA-A (ssRNA)
RNA: AUUAAACGUGA
On to B2, for which the Kd in data set [1] (label: 5' IRDye 800CW) turned out to be 1.29 µM; in data set [2] (label: 5' IRDye 800CW) it was 0.911 µM; in data set [3] (label: 5' IRDye 800CW) it was 0.343 µM; in data set [4] (label: 5' IRDye 800CW), 0.259 µM; in data set [5] (label: 5' IRDye 800CW), 0.121 µM.

B3: IR-rpoA-U (ssRNA)
RNA: AUUAUACGUGA
For B3, the Kd is 0.651 µM in data set [1] (label: 5' IRDye 800CW); 0.134 µM in data set [2] (label: 5' IRDye 800CW); 0.283 µM in data set [3] (label: 5' IRDye 800CW); 0.219 µM in data set [4] (label: 5' IRDye 800CW); 0.667 µM in data set [5] (label: 5' IRDye 800CW).

B4: Cy5-rpoA (ssRNA)
RNA: AUUACACGUGA
For B4, the Kd in data set [1] (label: 5' Cy5) amounted to 0.491 µM; in data set [2] (label: 5' Cy5), 0.168 µM; in data set [3] (label: 5' Cy5), 0.124 µM; in data set [4] (label: 5' Cy5) it was 0.135 µM; in data set [5] (label: 5' Cy5), 0.16 µM.
